Results taken from article PMC6346709.

How the values were obtained:
[1] = molecular target: Recombinant CbpF from Fn ATCC 25586 (group I), passenger domain (Fusobacterium nucleatum ATCC 25586) (UniProt Q8RIS0); assay: ELISA; purified CbpFI and CbpFII (3 pmol) immobilised on plates; 1 pmol of each CEACAM-Fc variant; anti-human secondary antibody
[2] = molecular target: Recombinant CbpF from clinical strain 2B3 (group II), passenger domain, pOPINE construct; assay: ELISA; conditions: 3 pmol CbpF; 15 fmol CEACAM1-3-Fc mutant; developed for 5 hrs at 37°C; parent: est. 0.66; read off a plot
[3] = molecular target: Recombinant CbpF from Fn ATCC 25586 (group I), passenger domain (UniProt Q8RIS0); assay: ELISA; conditions: 3 pmol CbpF; 15 fmol CEACAM1-3-Fc mutant; developed for 5 hrs at 37°C; parent: est. 0.43; read off a plot
[4] = molecular target: CEACAM binding protein of Fusobacterium (CbpF) of F. nucleatum ATCC 25586, FN1499 (Fusobacterium nucleatum ATCC 25586 (endogenous)); assay: migration on SDS-PAGE and Western blot; native CbpF in lysate or co-precipitate runs at ~150 kDa against ~50 kDa predicted for the mature chain; Fn lysate gives a ~50 kDa band after 70% formic acid
[5] = molecular target: CEACAM binding protein of Fusobacterium (CbpF) of F. vincentii ATCC 49256, FNV1729 (Fusobacterium vincentii ATCC 49256 (endogenous)); assay: as above
[6] = molecular target: Recombinant CbpF from clinical isolate 2B3 (protein of Figure 8, dot blot and Figure S9); assay: ELISA; conditions: chain shown with the change; read at 2 µg.ml-1 of the Fc construct (highest point of the titration); recombinant CbpF immobilised; parent: est. 1.9; read off a plot
[7] = molecular target: T1, Recombinant CbpF from Fn ATCC 25586 (group I), passenger domain, Q8RIS0; assay: ELISA; conditions: chain shown with the change; 3 pmol CbpF; 15 fmol CEACAM1-3-Fc mutant; developed for 5 hrs at 37°C; parent: est. 0.43; read off a plot
T1 chain: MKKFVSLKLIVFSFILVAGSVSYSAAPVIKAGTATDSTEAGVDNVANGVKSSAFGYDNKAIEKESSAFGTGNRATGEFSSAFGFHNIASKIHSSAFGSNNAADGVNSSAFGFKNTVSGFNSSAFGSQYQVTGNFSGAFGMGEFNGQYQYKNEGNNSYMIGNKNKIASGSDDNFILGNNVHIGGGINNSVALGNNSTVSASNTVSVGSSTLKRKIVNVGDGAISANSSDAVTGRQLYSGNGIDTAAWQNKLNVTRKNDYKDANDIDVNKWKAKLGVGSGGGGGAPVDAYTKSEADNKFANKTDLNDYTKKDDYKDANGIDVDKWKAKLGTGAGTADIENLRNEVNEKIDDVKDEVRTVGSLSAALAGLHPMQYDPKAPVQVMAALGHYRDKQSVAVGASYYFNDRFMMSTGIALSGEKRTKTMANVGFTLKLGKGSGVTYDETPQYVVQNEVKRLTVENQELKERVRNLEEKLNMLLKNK

## CEA-Fc (from UniProt P06731 35-685) (Fc fusion)
[1]
  binding relative to group II CbpF: 50%

## CEACAM1-3-Fc (containing N-A1-B1 domains) F29G
[2]
  response: 0.012 A405
[3]
  response: 0.012 A405

## CEACAM1-3-Fc (containing N-A1-B1 domains) F29I
[2]
  response: 0.017 A405
[3]
  response: 0.012 A405

## CEACAM1-3-Fc (containing N-A1-B1 domains) F29R
[2]
  response: 0.013 A405
[3]
  response: 0.013 A405

## CEACAM1-3-Fc (containing N-A1-B1 domains) F29Y
[2]
  response: 0.082 A405
[3]
  response: 0.017 A405

## CEACAM1-3-Fc (containing N-A1-B1 domains) G47L
[2]
  response: 0.008 A405
[3]
  response: 0.007 A405

## CEACAM1-3-Fc (containing N-A1-B1 domains) I91A
[2]
  response: 0.01 A405
[3]
  response: 0.02 A405

## CEACAM1-3-Fc (containing N-A1-B1 domains) I91G
[2]
  response: 0.017 A405
[3]
  response: 0.066 A405

## CEACAM1-3-Fc (containing N-A1-B1 domains) I91L
[2]
  response: 0.006 A405
[3]
  response: 0.022 A405

## CEACAM1-3-Fc (containing N-A1-B1 domains) Q44E
[2]
  response: 0.017 A405
[3]
  response: 0.02 A405

## CEACAM1-3-Fc (containing N-A1-B1 domains) Q44L
[2]
  response: 0.021 A405
[3]
  response: 0.027 A405

## CEACAM1-3-Fc (containing N-A1-B1 domains) Q44R
[2]
  response: 0.013 A405
[3]
  response: 0.02 A405

## CEACAM1-3-Fc (containing N-A1-B1 domains) Q89N
[2]
  response: 0.17 A405

## CEACAM1-3-Fc (containing N-A1-B1 domains) V96A
[2]
  response: 0.87 A405

## CEACAM1-3-Fc (containing N-A1-B1 domains) Y34A
[2]
  response: 0.043 A405
[3]
  response: 0.021 A405

## CEACAM1-3-Fc (containing N-A1-B1 domains) Y34F
[2]
  response: 0.013 A405
[3]
  response: 0.017 A405

## CEACAM1-3-Fc (containing N-A1-B1 domains) Y34S
[2]
  response: 0.012 A405
[3]
  response: 0.017 A405

## CEACAM1-Fc, comprising all extracellular CEACAM1 domains fused to the human immunoglobulin G (IgG) Fc domain (from UniProt P13688 35-428) (Fc fusion)
[1]
  binding relative to group II CbpF: 75%

## CEACAM binding protein of Fusobacterium (CbpF) of F. nucleatum ATCC 25586, FN1499 (natural protein)
[4]
  stoichiometry N: 3

## CEACAM binding protein of Fusobacterium (CbpF) of F. vincentii ATCC 49256, FNV1729 (natural protein)
[5]
  stoichiometry N: 3

B1: CEACAM1-Fc, comprising all extracellular CEACAM1 domains fused to the human immunoglobulin G (IgG) Fc domain, P13688 I91A (protein)
chain: QLTTESMPFNVAEGKEVLLLVHNLPQQLFGYSWYKGERVDGNRQIVGYAIGTQQATPGPANSGRETIYPNASLLIQNVTQNDTGFYTLQVAKSDLVNEEATGQFHVYPELPKPSISSNNSNPVEDKDAVAFTCEPETQDTTYLWWINNQSLPVSPRLQLSNGNRTLTLLSVTRNDTGPYECEIQNPVSANRSDPVTLNVTYGPDTPTISPSDTYYRPGANLSLSCYAASNPPAQYSWLINGTFQQSTQELFIPNITVNNSGSYTCHANNSVTGCNRTTVKTIIVTELSPVVAKPQIKASKTTVTGDKDSVNLTCSTNDTGISIRWFFKNQSLPSSERMKLSQGNTTLSINPVKREDAGTYWCEVFNPISKNQSDPIMLNVNYNALPQENGLSPG
[6]
  response: 0 A405

B2: CEACAM1-3-Fc (containing N-A1-B1 domains) V96A (protein)
chain: QLTTESMPFNVAEGKEVLLLVHNLPQQLFGYSWYKGERVDGNRQIVGYAIGTQQATPGPANSGRETIYPNASLLIQNVTQNDTGFYTLQVIKSDLANEEATGQFHVYPELPKPSISSNNSNPVEDKDAVAFTCEPETQDTTYLWWINNQSLPVSPRLQLSNGNRTLTLLSVTRNDTGPYECEIQNPVSANRSDPVTLNVTYGPDTPTISPSDTYYRPGANLSLSCYAASNPPAQYSWLINGTFQQSTQELFIPNITVNNSGSYTCHANNSVTGCNRTTVKTIIVTGK
[7]
  response: 0.4 A405

B3: CEACAM1-3-Fc (containing N-A1-B1 domains) Q89N (protein)
chain: QLTTESMPFNVAEGKEVLLLVHNLPQQLFGYSWYKGERVDGNRQIVGYAIGTQQATPGPANSGRETIYPNASLLIQNVTQNDTGFYTLNVIKSDLVNEEATGQFHVYPELPKPSISSNNSNPVEDKDAVAFTCEPETQDTTYLWWINNQSLPVSPRLQLSNGNRTLTLLSVTRNDTGPYECEIQNPVSANRSDPVTLNVTYGPDTPTISPSDTYYRPGANLSLSCYAASNPPAQYSWLINGTFQQSTQELFIPNITVNNSGSYTCHANNSVTGCNRTTVKTIIVTGK
[7]
  response: 0.024 A405
